Sequences and labels used below:
T1: fibrinogen (UniProt P02671 20-629; P02675 31-491; P02679 27-437, limits assumed)
T1 sequence (looked up) 1: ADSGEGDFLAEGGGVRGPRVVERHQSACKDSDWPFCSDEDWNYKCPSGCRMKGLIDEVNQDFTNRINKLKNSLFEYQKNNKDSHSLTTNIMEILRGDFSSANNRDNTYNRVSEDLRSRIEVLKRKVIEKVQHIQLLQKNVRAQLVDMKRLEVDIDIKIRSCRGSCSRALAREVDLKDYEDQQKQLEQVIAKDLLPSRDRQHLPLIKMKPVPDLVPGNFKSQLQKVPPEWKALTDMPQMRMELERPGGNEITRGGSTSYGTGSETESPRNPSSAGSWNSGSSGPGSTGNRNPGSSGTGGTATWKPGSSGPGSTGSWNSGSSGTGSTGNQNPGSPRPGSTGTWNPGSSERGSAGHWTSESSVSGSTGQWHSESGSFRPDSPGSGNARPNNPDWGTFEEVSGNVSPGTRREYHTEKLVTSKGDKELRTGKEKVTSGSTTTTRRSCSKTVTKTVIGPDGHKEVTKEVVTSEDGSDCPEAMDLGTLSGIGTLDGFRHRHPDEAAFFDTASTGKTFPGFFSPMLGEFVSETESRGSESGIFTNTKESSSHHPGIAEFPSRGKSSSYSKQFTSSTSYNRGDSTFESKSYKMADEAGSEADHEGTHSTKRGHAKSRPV
T1 sequence (looked up) 2: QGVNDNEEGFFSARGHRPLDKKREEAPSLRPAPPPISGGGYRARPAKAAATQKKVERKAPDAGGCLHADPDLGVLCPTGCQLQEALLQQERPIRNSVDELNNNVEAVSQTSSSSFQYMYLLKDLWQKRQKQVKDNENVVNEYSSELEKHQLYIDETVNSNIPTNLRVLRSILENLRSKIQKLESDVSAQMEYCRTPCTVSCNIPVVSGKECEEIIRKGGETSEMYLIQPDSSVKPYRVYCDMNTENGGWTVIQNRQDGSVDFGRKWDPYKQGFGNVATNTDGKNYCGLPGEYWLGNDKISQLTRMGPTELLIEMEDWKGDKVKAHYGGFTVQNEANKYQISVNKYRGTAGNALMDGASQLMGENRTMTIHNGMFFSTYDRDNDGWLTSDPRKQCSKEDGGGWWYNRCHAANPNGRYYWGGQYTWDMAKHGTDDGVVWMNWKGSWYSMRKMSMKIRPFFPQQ
T1 sequence (looked up) 3: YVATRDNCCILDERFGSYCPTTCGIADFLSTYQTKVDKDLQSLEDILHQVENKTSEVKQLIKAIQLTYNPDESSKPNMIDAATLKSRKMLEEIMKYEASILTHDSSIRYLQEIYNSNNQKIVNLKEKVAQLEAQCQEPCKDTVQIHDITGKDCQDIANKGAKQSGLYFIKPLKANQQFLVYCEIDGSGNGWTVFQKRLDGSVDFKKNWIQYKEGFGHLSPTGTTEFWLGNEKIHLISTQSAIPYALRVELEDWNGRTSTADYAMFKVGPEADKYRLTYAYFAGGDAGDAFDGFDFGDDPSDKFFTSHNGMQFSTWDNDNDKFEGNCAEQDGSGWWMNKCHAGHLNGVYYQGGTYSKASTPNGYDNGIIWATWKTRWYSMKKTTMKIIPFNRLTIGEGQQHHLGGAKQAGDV

B1: TN7 isolate 8, phage-displayed DGCHYYGTCLH (peptide)
peptide: DGCHYYGTCLH
modifications: not fully specified (bridges); cysteine pairing not given here
notes: Tested as a phage clone; not shown: not specified
B2: TN7 isolate 1, phage-displayed RPCDYYGTCFD (peptide)
peptide: RPCDYYGTCFD
modifications: not fully specified (bridges); cysteine pairing not given here
notes: as for B1
B3: TN7 isolate 9, phage-displayed RSCNYYGTCLH (peptide)
peptide: RSCNYYGTCLH
modifications: not fully specified (bridges); cysteine pairing not given here
notes: as for B1
B4: TN7 isolate 10, phage-displayed RPCNYYGTCLH (peptide)
peptide: RPCNYYGTCLH
modifications: not fully specified (bridges); cysteine pairing not given here
notes: as for B1
B5: TN7 isolate 6, phage-displayed FACHYYGTCLH (peptide)
peptide: FACHYYGTCLH
modifications: not fully specified (bridges); cysteine pairing not given here
notes: as for B1
B6: TN7 isolate 7, phage-displayed LACHYYGTCLH (peptide)
peptide: LACHYYGTCLH
modifications: not fully specified (bridges); cysteine pairing not given here
notes: as for B1
B7: TN7 isolate 2, phage-displayed LSCDYYGTCLR (peptide)
peptide: LSCDYYGTCLR
modifications: not fully specified (bridges); cysteine pairing not given here
notes: as for B1
B8: TN7 isolate 4, phage-displayed DPCSYYGTCLH (peptide)
peptide: DPCSYYGTCLH
modifications: not fully specified (bridges); cysteine pairing not given here
notes: as for B1
B9: TN7 isolate 5, phage-displayed LPCSYYGTCLH (peptide)
peptide: LPCSYYGTCLH
modifications: not fully specified (bridges); cysteine pairing not given here
notes: as for B1
B10: TN7 isolate 12, phage-displayed FSCWYSLHCHR (peptide)
peptide: FSCWYSLHCHR
modifications: not fully specified (bridges); cysteine pairing not given here
notes: as for B1
B11: TN7 isolate 11, phage-displayed HDCQYYGTCLH (peptide)
peptide: HDCQYYGTCLH
modifications: not fully specified (bridges); cysteine pairing not given here
notes: as for B1
B12: TN7 isolate 3, phage-displayed LPCDYYGTCLD (peptide)
peptide: LPCDYYGTCLD
notes: as for B1

Ends that are not written are not given here.

One assay has as its target T1, fibrinogen. In words: phage ELISA on immobilised fibrinogen. On the procedure: (§1) After five rounds of selection, the eluted phage were propagated and a portion plated to isolate phage plaques arising from individual clones. Ninety such clones were selected randomly, propagated, and tested individually for binding to fibrin in a dried fibrin plate assay. Dried fibrin plates were prepared as described above for the library screening. Phage samples (˜10⁹ phage each) were incubated in the dried fibrin plate wells in binding buffer (50 mM Tris, 150 mM NaCl, 2 mM CaCl₂, 0.05% Tween-20) containing 0.1% HSA. After 1 hour, the plates were washed 5 times with binding buffer. Anti-M13 antibody conjugated to horseradish peroxidase (Pharmacia) was added at 1/5000 dilution in binding buffer to the wells and incubated with the fibrin for 1 hour. The wells were again washed 5 times with binding buffer and the presence of the antibody/phage/fibrin complex was measured with HRP calorimetric reagents (3,3′,5,5′-tetrarnethylbenzidine (TMB) and H₂O₂). A high absorbance at 595 nm (due to oxidized TMB) was indicative of a tight phage/fibrin interaction, and phage clones corresponding to those wells were identified as bearing fibrin-binding moieties.
(§2) These fibrin-binding positive clones were subjected to several secondary ELISA assays. These assays followed a similar protocol to that detailed above for the dried fibrin ELISA assay, the only variations being the method of target immobilization and the omission of HSA from binding and wash buffers. A screen against DD(E) acted as a further confirmation of fibrin binding activity. An ELISA screen against fibrinogen (immobilized to the plate by the biotin/streptavidin protocol used for DD(E)) was a check against fibrinogen binding and confirmed that the negative selection procedure detailed in Example 2 had been effective. Finally, ELISAs to assay binding to immobilized HSA (passively bound to the polystyrene plate) and a target-free microtiter plate were controls to eliminate phage that bound promiscuously or nonspecifically.
(In general: ELISA stands for enzyme-linked immunosorbent assay.)
B1: the binding result was “no binding”. Consider B2, for which the binding result is listed as “no binding”. On the same count and under the same terms, to B3 belongs “no binding”; to B4, “no binding”; to B5, “no binding”. For the molecule B6, the binding result is “no binding”.

Turning to B7, the binding result is reported as “no binding”. Still for that read-out and setting: to B8 belongs “no binding”; to B9, “no binding”; to B10, “no binding”. Same read-out and setting: to B11 belongs “no binding”.

Another assay deals with T2, human serum albumin (human, UniProt P02768 25-609).
T2 construct: also called HSA
T2 sequence (P02768 25-609 limits assumed): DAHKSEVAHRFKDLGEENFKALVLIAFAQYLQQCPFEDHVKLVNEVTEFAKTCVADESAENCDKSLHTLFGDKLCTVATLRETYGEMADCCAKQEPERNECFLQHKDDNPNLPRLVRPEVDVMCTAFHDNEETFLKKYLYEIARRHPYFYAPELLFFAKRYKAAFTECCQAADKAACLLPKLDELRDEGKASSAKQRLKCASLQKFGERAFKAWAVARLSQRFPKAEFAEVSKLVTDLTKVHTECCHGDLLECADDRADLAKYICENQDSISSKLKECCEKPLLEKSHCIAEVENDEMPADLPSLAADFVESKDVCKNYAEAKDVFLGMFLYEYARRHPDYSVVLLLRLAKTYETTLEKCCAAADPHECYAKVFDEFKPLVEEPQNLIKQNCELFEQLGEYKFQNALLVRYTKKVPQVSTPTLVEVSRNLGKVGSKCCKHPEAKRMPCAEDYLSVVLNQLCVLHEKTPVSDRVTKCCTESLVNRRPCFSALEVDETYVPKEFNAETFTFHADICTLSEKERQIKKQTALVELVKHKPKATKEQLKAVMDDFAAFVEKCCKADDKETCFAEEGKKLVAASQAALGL
Briefly: phage ELISA on immobilised HSA. Here is the method:
as §1, §2
As for B1, the binding result is “no binding”. Take B12: the binding result was “no binding”. Same read-out and setting: next, B2: “no binding”; B3: “no binding”; B4: “no binding”. Same read-out and setting: next, B5: “no binding”; B6: “no binding”. Turning to B7, the binding result is given as “no binding”. On the same count and under the same terms, next, B8: “no binding”; B9: “no binding”. For B10, the binding result is listed as “no binding”. Same read-out and setting: next, B11: “no binding”.

The record behind these values is US20050261472A1, “Binding moieties for fibrin” (Dyax Corp., priority 1999, published 2005).
